The target of this test is GST-Foxp1 fusion protein (mouse) (mouse) (UniProt P58462). In words: pull-down; GST or GST-Foxp1 from bacterial extracts immobilised on GSH-agarose beads and washed; 1 ul of 35S-labelled in vitro translated Ikaros in 200 ul 0.02 M HEPES-KOH pH 7.9, 0.1% NP-40, 0.15 M NaCl, 1 mM DTT, 1 h at 4°C; quantified relative to input and to wild type (100%).
Sequence of UniProt P58462 (P58462 whole entry, the tested form may be a part): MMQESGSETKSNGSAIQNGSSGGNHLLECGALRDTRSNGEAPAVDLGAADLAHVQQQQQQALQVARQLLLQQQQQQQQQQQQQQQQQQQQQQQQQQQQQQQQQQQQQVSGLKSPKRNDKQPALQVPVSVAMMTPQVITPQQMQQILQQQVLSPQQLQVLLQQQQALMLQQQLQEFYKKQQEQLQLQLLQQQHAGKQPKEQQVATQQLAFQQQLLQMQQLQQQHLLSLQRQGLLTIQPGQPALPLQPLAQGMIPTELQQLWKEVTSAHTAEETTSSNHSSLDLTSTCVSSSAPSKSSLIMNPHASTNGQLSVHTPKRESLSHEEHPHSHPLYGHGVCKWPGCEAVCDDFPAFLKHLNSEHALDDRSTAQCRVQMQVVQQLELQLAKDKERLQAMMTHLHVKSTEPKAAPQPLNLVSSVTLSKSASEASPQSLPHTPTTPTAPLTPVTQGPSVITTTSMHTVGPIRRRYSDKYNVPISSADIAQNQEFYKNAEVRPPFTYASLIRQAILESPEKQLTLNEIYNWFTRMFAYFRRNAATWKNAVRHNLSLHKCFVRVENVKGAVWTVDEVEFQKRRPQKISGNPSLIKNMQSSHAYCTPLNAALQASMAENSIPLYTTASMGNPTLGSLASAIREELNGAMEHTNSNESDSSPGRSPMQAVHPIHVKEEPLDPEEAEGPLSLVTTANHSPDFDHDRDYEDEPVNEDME

“IKΔC458 (mouse Ikaros deletion of the two C-terminal zinc fingers; in vitro translated) (domain or fragment)”: the reduction relative to wild-type binding amounted to 50%.
With “IKΔ235-362 (mouse Ikaros deletion; in vitro translated) (domain or fragment)” the figure was 40%.

For the origin of these results see PMC5323203.
